The record followed here is publication PMC5729022.

In test [1] the target is network soluble collagen type IV from human placenta (human) (UniProt P02462).
Test [2] has as its target insoluble microfibrillar collagen type I from bovine Achilles tendon, Col I(S) (bovine) (UniProt P02453).
Test [3] concerns the target insoluble microfibrillar collagen type I from bovine skin, Col I(D) (bovine) (UniProt P02453).
Test [4] addresses soluble fibrillar collagen type II from bovine tracheal cartilage (bovine) (UniProt P02459).
The target of test [5] is soluble fibrillar collagen type III from human placenta (human) (UniProt P02461).
Sequence of UniProt P02461 (P02461 154-1221): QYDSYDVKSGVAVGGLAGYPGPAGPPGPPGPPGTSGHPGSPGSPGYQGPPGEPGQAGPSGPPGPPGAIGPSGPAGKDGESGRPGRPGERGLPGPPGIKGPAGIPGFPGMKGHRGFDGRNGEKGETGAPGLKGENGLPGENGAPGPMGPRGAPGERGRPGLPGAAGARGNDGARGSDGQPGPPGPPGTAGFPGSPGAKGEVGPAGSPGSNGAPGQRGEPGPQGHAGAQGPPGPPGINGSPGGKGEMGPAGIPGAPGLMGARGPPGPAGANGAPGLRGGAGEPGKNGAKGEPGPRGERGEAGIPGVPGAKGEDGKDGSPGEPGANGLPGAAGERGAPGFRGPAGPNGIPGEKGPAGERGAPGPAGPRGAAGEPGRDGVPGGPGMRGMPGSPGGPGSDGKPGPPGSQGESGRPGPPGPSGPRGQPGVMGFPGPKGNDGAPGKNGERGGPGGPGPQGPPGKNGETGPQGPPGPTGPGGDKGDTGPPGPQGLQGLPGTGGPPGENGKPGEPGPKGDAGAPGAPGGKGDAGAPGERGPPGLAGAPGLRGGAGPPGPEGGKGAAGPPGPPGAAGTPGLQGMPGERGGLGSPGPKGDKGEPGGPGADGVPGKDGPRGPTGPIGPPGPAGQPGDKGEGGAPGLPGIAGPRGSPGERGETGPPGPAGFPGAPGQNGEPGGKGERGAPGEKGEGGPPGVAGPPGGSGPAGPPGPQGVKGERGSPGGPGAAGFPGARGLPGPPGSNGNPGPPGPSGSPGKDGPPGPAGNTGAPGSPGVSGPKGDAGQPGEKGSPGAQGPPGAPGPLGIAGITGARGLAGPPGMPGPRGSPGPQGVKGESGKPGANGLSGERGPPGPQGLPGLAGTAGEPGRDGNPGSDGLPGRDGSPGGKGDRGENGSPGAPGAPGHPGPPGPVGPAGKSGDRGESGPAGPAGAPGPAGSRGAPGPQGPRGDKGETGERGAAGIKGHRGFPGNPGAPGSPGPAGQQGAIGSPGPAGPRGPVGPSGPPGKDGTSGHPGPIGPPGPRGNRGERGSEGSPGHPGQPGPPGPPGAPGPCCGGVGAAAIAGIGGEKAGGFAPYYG

Sequence of UniProt P02459 (P02459 182-1241): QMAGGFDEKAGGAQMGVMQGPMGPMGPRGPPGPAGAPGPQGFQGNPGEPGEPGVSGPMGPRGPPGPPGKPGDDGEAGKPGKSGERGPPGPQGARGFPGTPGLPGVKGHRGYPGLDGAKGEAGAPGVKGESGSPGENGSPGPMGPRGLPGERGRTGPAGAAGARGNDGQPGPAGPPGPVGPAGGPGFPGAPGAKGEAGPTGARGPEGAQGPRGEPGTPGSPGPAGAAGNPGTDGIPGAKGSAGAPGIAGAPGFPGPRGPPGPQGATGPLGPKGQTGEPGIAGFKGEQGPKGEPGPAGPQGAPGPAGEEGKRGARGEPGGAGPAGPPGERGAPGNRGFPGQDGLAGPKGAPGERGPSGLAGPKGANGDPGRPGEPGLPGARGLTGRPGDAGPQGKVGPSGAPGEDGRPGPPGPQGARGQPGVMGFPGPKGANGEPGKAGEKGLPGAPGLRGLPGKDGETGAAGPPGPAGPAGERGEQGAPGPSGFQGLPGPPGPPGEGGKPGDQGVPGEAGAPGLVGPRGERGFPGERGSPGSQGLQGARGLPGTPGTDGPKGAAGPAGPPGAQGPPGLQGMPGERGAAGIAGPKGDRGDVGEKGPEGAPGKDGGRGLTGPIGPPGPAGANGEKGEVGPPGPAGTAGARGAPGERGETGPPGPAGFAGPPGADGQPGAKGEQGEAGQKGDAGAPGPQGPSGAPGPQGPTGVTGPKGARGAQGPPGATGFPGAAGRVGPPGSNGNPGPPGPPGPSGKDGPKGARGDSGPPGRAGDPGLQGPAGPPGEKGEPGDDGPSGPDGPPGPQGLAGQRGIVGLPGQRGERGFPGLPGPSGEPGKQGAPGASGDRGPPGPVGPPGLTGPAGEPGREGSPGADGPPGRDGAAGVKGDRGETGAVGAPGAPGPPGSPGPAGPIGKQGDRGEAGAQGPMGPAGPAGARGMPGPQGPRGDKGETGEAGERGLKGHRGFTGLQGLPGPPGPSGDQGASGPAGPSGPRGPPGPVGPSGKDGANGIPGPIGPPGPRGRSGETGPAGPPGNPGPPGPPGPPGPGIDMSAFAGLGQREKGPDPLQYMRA

Turning to “recombinant human integrin α1 I domain (GST fusion) (from UniProt P56199 169-363) (domain or fragment)”, in test [1], the percent of C2C12 cells transfected with human integrin α1 adhering to the collagen coating, 5 mM Mg2+, LDH assay, 1 × 10^5 cells/ml is 51.9%.

In the case of “recombinant human integrin α2 I domain (GST fusion) (domain or fragment)”, the percent of C2C12 cells transfected with human integrin α2 adhering to the collagen coating, 5 mM Mg2+, LDH assay, 1 × 10^5 cells/ml in test [2] turned out to be 44.2%; in test [3] it was 36.5%; in test [1], 16.1%; in test [4], 23.9%; in test [5], 18.5%. Also, the percent of HT1080 cells (endogenous human α2β1) adhering to the collagen coating, 5 mM Mg2+, LDH assay, 1 × 10^5 cells/ml came out at 45.6% in test [2]; 43.6% in test [3]; 24.7% in test [1]; 40.3% in test [4]; 28.1% in test [5].

Regarding “recombinant rat integrin α1 I domain (GST fusion) (domain or fragment)”, the percent of Rugli cells (endogenous rat α1β1) adhering to the collagen coating, 5 mM Mg2+, LDH assay, 1 × 10^5 cells/ml in test [2] was found to be 22.8%; in test [3] it was 27%; in test [1], 64.1%; in test [4], 18.9%; in test [5], 55.6%.
